Test results: publication PMC2786213

Columns and labels:
[1] = target: discoidin domain receptor 1 (DDR1), mouse DDR1a, tagged with cyan or yellow fluorescent protein (mouse); assay: FRET or BRET

Sequence of discoidin domain receptor 1 (DDR1), mouse DDR1a, tagged with cyan or yellow fluorescent protein (Q03146 20-911): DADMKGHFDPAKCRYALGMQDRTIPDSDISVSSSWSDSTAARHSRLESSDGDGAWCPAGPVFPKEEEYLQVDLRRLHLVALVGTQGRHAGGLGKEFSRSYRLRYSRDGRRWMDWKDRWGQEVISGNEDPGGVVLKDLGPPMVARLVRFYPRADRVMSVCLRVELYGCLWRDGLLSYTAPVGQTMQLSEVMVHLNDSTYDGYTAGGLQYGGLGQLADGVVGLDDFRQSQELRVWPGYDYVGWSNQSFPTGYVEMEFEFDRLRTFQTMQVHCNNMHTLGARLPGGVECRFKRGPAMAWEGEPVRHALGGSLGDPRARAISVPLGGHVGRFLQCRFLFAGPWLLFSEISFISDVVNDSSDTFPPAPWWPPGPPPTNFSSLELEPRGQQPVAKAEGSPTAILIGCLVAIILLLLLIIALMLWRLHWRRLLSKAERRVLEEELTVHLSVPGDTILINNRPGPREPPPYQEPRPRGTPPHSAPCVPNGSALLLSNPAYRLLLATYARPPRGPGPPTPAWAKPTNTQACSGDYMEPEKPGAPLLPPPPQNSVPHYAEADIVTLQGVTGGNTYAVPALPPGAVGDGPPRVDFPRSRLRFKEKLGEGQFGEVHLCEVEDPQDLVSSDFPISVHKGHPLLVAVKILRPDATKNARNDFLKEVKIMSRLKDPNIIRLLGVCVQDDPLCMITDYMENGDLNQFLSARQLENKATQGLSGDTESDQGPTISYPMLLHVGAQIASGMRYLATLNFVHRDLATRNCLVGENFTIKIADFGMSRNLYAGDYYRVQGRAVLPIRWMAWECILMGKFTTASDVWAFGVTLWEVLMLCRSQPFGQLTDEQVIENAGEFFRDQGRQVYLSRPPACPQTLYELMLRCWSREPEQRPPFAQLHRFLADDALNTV

FRET index FC/A (0 min, no collagen) [1]: 5.1
Substance: discoidin domain receptor 1 (DDR1), mouse DDR1a, tagged with cyan or yellow fluorescent protein
FRET index FC/A (collagen 5 min, aggregated ROI) (FRET or BRET): 14.6 | FRET index FC/A (collagen 30 min, aggregated ROI) (FRET or BRET): 15.2 | FRET index FC/A (collagen 60 min, aggregated ROI) (FRET or BRET): 13.8 | FRET index FC/A (collagen 60 min, nonaggregated ROI) (FRET or BRET): 5.2
